# Experimental data as given in publication PMC3307221 (Analytical Chemistry, 2012).
# B1: M18 scFv (scFv, V domains shown)
# VH: EVQLQQSGPELVKPGASVKISCKDSGYAFNSSWMNWVKQRPGQGLEWIGRIYPGDGDSNYNGKFEGKAILTADKSSSTAYMQLSSLTSVDSAVYFCARSGLLRYAMDYWGQGTSVTVSS
# VL: DIQMTQTTSSLSASLGDRVTVSCRASQDIRNYLNWYQQKPDGTVKFLIYYTSRLQPGVPSRFSGSGSGTDYSLTINNLEQEDIGTYFCQQGNTPPWTFGGGTKLEIK
# Biological target: protective antigen of anthrax (Bacillus anthracis, strain , UniProt P13423)
# Assay: SPR
# Chain of protective antigen of anthrax (P13423 whole entry, looked up): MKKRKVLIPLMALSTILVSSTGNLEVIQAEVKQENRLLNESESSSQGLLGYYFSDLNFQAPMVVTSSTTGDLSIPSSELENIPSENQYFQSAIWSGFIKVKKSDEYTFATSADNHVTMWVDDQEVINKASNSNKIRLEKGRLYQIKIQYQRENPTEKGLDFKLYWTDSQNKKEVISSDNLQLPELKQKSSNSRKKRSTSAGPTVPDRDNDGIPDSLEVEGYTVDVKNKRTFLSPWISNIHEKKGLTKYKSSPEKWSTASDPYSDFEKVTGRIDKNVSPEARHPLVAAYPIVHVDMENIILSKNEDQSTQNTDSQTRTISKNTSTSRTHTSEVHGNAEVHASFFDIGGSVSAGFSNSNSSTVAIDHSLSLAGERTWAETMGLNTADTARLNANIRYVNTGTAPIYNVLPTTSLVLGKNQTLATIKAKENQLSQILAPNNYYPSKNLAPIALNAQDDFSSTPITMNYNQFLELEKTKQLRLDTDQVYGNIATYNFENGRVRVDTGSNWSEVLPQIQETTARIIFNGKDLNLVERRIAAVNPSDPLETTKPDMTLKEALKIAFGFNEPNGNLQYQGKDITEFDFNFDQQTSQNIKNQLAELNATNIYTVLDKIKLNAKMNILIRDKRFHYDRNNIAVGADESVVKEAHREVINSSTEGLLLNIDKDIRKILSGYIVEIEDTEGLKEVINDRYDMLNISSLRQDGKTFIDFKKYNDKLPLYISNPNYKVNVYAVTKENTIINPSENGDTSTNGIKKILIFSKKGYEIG
binder,measurement,value
B1,koff,0.00011 s⁻¹
same,kon,597000 M⁻¹ s⁻¹
